These results are taken from patent US8703913B2, “Sensor” (Medical Research Council, priority 2008, dated 2014).

The conditions of data set [1]: 37° C.; reported (16); cited from earlier work.
For data set [2] the following is noted: reported (19); read-out: dissociation constant for ethenoADP; cited from earlier work.
For data set [3] the following is noted: reported (19), cited from earlier work.
A short description of data set [4]: Fluorescence titration of labeled ParM with ATP. Type of data set: binding. To be noted: Table 2; for ATP F+ATP/F−ATP: MDCC-ParM mutants; for ATP F+ATP/F−ATP / Kd: 20° C.; for Kd: highly purified ATP containing only 0.03% ADP. The procedure:
The MDCC fluorescence was excited at 431 nm and emission was recorded at 474 nm. The equilibrium dissociation constants were determined by fitting a quadratic binding curve to the data. For the plot the experimental fluorescence intensities were converted to the nucleotide bound fraction of ParM.
(§1) The equilibrium dissociation constants were determined by fitting a quadratic binding curve to the data and are listed in Table Y. For the plot the experimental fluorescence intensities were normalized to the maximal fluorescence change obtained at saturation with ADP.
ADP and ATP were purchased from Sigma at the highest purity available. The purity of the nucleotides was analysed by HPLC using a Partisphere SAX column, 125×4.5 mm (Whatman). Nucleotide separation was performed isocratic with 0.3 M (NH4)2HPO4 buffer pH 4.0, 25% MeOH, and the absorbance at 260 nm was monitored.
(§2) [formula] where [P] and [L] are the total concentrations of protein and ligand, respectively, Kd is the dissociation constant and Fmin and Fmax are the fluorescence intensities of the free and ligand bound protein.
(§3) Fluorescence spectra and titrations were measured in a Cary Eclipse spectrofluorimeter (Varian). Excitation and emission spectra were recorded with 5 nm slit width at emission and excitation wavelength of 576 nm and 553 nm, respectively. In titration experiments rhodamine fluorescence was measured at the same excitation/emission wavelength. Titration data were analyzed with a quadratic binding curve using the program Grafit 5.0 (7).

A short description of data set [5]: Stopped-flow kinetics of ADP binding and dissociation. Conditions: Table 3; for kon: ADP association, stopped-flow; for kon / koff: 20° C.; for Kd: calculated as koff/kon; for koff: displacement with unlabeled ParM.
A short description of data set [6]: Fluorescence titration of labeled ParM with ADP. Type of data set: binding. To be noted: Table 2, 20° C.; for ADP F+ADP/F−ADP: MDCC-ParM mutants; for Kd: fluorescence titration. The procedure: MDCC fluorescence was excited at 431 nm and detected at 474 nm, for the rhodamine-labeled proteins, excitation and emission wavelengths of 553 nm and 578 nm were used. […] The fraction of ParM bound to ADP was calculated from the fluorescence intensities.
The MDCC fluorescence was excited at 431 nm and emission was recorded at 474 nm. The equilibrium dissociation constants were determined by fitting a quadratic binding curve to the data.
as §1, §2, §3

Where two headings read alike, the source gives them in different places.

B1: wild-type ParM: prokaryotic actin homologue encoded on Escherichia coli plasmid R1, accession P11904 (protein, listed as Escherichia coli)
chain: MLVFIDDGSTNIKLQWQESDGTIKQHISPNSFKREWAVSFGDKKVFNYTLNGEQYSFDPISPDAVVTTNIAWQYSDVNVVAVHHALLTSGLPVSEVDIVCTLPLTEYYDRNNQPNTENIERKKANFRKKITLNGGDTFTIKDVKVMPESIPAGYEVLQELDELDSLLIIDLGGTTLDISQVMGKLSGISKIYGDSSLGVSLVTSAVKDALSLARTKGSSYLADDIIIHRKDNNYLKQRINDENKISIVTEAMNEALRKLEQRVLNTLNEFSGYTHVMVIGGGAELICDAVKKHTQIRDERFFKTNNSQYDLVNGMYLIGN
With B1, the “ATPase activity accelerated by polymerization” value in data set [1] is roughly 3 min⁻¹. Moreover, the Kd is 2400 nM in data set [2], 40 nM in data set [3] (read-out: Kd for ethenoATP) and 40 nM in data set [3] (read-out: dissociation constant for ethenoATP). In addition, the “ethenoATP bound tighter than ethenoADP” value in data set [3] is on record as 60 fold.

B2: T175L: MDCC-ParM (His6/I27C/T175L/C287A) (conjugate, UniProt P11904 1-320, looked up, variant I27C T175L C287A)
Plasmid segregation protein …: MLVFIDDGSTNIKLQWQESDGTIKQHCSPNSFKREWAVSFGDKKVFNYTLNGEQYSFDPISPDAVVTTNIAWQYSDVNVVAVHHALLTSGLPVSEVDIVCTLPLTEYYDRNNQPNTENIERKKANFRKKITLNGGDTFTIKDVKVMPESIPAGYEVLQELDELDSLLIIDLGGTLLDISQVMGKLSGISKIYGDSSLGVSLVTSAVKDALSLARTKGSSYLADDIIIHRKDNNYLKQRINDENKISIVTEAMNEALRKLEQRVLNTLNEFSGYTHVMVIGGGAELIADAVKKHTQIRDERFFKTNNSQYDLVNGMYLIGN
modifications: MDCC label; His6 tag
Take B2: in data set [4], the “Kd ratio ATP/ADP” value was found to be 324, the “ATP F+ATP/F−ATP” value stood at 2.3 and the Kd was 507 µM. For the same molecule, in data set [5], the kon came out at 0.34 µM⁻¹ s⁻¹, the Kd was 810 nM and the koff was 0.28 s⁻¹. Moreover, in data set [6], the “ADP F+ADP/F−ADP” value came out at 1.9 and the Kd turned out to be 1570 nM.

B3: T174A T175A: MDCC-ParM (His6/I27C/T174A/T175A/C287A) (conjugate, UniProt P11904 1-320, looked up, variant I27C T174A T175A C287A)
Plasmid segregation protein …: MLVFIDDGSTNIKLQWQESDGTIKQHCSPNSFKREWAVSFGDKKVFNYTLNGEQYSFDPISPDAVVTTNIAWQYSDVNVVAVHHALLTSGLPVSEVDIVCTLPLTEYYDRNNQPNTENIERKKANFRKKITLNGGDTFTIKDVKVMPESIPAGYEVLQELDELDSLLIIDLGGAALDISQVMGKLSGISKIYGDSSLGVSLVTSAVKDALSLARTKGSSYLADDIIIHRKDNNYLKQRINDENKISIVTEAMNEALRKLEQRVLNTLNEFSGYTHVMVIGGGAELIADAVKKHTQIRDERFFKTNNSQYDLVNGMYLIGN
modifications: MDCC label; His6 tag
As for B3, in data set [4], the “Kd ratio ATP/ADP” value was 324, the “ATP F+ATP/F−ATP” value is listed as 3.2 and the Kd worked out at 107 µM. Moreover, in data set [5], the kon turned out to be 0.98 µM⁻¹ s⁻¹, the Kd was 220 nM and the koff was 0.22 s⁻¹. In addition, in data set [6], the “ADP F+ADP/F−ADP” value is given as 3.3 and the Kd is 330 nM.
